The results in this text go back to patent publication US20230190900 (published 2023).

By Kd is commonly meant the free concentration of one partner at which half of the binding sites on the other are occupied at equilibrium, for simple one-to-one binding. Low values mean tighter binding, high ones weaker binding.

The target in one assay is EGFRvIII (CHO cells) (human). As to the kind of experiment: FACS, CHO cells 37C. For orientation: In flow cytometry, cells or beads pass a laser one at a time.
The target of a further assay is T1, human FcγRI (CD64) (human, UniProt P12314).
T1 chain: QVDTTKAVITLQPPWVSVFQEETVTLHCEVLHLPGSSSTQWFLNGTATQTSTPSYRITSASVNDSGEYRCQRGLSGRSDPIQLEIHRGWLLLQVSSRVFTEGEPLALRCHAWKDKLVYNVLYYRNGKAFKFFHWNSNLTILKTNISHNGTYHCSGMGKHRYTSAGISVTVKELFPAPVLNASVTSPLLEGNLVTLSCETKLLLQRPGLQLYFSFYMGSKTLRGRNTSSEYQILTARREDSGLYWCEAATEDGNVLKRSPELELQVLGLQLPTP
The assay can be described thus: SPR. For orientation: SPR reads the build-up and loss of mass on a sensor chip optically.

Another assay concerns the target T2, murine FcγRI (mouse, UniProt P26151).
T2 chain: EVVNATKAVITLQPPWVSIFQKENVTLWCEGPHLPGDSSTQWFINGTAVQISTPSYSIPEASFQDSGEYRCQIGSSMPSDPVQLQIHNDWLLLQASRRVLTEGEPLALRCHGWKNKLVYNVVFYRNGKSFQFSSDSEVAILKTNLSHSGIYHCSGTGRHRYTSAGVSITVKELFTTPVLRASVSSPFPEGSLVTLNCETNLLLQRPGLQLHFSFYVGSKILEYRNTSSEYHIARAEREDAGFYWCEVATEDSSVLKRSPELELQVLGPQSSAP
As to the kind of experiment: SPR.

Assay [1] concerns the target T3, human FcγRIIIb (NA1) CD16B (human, UniProt O75015).
T3 chain: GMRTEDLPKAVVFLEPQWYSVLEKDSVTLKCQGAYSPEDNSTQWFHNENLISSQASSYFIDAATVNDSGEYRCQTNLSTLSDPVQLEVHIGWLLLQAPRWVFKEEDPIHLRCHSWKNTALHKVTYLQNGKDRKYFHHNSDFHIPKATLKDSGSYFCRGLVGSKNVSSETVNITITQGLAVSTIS
As to the kind of experiment: SPR.

A further assay has as its target T4, murine FcγRIII (mouse, UniProt P08508).
T4 chain: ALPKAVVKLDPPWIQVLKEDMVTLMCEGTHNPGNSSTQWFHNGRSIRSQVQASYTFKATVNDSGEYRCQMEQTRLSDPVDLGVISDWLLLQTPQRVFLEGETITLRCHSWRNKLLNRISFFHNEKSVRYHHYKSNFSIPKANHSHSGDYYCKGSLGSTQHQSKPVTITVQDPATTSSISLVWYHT
The assay can be described thus: SPR.

The next assay concerns the target T5, murine FcRn (mouse, UniProt Q61559).
T5 chain 1: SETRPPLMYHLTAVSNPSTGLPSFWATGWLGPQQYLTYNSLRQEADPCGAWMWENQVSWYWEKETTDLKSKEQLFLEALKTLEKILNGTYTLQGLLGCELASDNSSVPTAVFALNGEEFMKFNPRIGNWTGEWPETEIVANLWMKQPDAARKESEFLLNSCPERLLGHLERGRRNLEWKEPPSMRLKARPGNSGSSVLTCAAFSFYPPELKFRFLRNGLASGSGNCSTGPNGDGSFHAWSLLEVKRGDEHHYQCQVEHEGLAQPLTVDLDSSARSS
T5 chain 2: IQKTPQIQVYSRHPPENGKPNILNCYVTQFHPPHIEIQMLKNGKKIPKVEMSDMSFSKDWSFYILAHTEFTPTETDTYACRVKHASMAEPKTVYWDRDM
The assay can be described thus: SPR, pH 6.0.

For a further assay, the target named is T6, human FcγRIIc (CD32C) (human, UniProt P31995).
T6 chain: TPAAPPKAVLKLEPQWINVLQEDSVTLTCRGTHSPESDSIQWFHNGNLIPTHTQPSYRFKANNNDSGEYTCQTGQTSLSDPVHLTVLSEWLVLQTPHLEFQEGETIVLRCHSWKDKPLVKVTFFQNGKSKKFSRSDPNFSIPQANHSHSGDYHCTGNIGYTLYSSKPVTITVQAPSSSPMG
The assay can be described thus: SPR.

A further assay addresses human FcRn (human, UniProt P55899). As to the kind of experiment: SPR, pH 6.0.
A further assay deals with T7, cynomolgus FcRn (cynomolgus, UniProt Q8SPV9).
T7 chain 1: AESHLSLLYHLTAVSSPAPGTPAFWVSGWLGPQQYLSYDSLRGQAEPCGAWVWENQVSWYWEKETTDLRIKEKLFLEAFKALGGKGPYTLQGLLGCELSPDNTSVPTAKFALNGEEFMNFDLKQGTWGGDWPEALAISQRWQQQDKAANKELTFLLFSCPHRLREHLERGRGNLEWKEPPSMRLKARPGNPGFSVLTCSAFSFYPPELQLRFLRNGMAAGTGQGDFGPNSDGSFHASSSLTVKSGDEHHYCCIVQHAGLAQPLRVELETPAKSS
T7 chain 2: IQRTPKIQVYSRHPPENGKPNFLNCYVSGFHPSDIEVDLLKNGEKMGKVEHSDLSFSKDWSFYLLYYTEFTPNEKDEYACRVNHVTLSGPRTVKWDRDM
As to the kind of experiment: SPR, pH 6.0.

The next assay concerns the target T8, murine FcγRIIb (mouse, UniProt P08101).
T8 chain: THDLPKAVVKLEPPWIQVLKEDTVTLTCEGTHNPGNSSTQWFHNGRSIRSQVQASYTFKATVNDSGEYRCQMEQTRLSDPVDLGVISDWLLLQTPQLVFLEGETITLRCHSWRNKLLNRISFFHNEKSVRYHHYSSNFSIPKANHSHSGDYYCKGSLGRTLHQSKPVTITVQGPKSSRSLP
The assay can be described thus: SPR.

Another assay deals with T9, human FcγRIIb (CD32B) (human, UniProt P31994).
T9 chain: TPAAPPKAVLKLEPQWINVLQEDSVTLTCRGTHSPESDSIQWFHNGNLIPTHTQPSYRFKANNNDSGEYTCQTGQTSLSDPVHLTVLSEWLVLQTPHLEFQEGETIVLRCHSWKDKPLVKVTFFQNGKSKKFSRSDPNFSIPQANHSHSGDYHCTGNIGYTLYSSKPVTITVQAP
As to the kind of experiment: SPR.

The next assay concerns the target T10, murine FcγRIV (CD16-2) (mouse, UniProt A0A0B4J1G0).
T10 chain: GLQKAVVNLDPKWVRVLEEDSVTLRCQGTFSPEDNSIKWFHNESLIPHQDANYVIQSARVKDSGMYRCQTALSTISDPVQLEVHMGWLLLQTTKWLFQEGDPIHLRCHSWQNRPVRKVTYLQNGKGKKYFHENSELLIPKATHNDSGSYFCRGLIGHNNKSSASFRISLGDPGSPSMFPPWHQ
As to the kind of experiment: SPR.

The target in the next assay is T11, human FcγRIIa (CD32A) (human, UniProt P12318).
T11 chain: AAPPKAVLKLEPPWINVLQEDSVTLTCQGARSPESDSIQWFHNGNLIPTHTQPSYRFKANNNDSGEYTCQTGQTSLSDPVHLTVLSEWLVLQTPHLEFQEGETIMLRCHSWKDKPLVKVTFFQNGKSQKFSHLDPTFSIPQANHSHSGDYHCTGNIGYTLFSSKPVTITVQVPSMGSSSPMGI
As to the kind of experiment: SPR.

In assay [2] the target is T12, cynomolgus FcγRIIa (CD32A) (cynomolgus).
T12 chain: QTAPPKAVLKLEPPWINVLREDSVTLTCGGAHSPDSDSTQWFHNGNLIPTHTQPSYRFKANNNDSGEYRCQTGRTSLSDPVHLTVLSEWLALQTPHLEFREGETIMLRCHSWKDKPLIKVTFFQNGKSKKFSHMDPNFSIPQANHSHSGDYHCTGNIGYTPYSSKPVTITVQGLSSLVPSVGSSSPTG
As to the kind of experiment: SPR.

B1: Tandem diabody EGFR arm (antibody, V domains shown)
VH: QVQLQESGPGLVKPSETLSLTCTVSGGSVSSGSYYWSWIRQPPGKGLEWIGYIYYSGSTNYNPSLKSRVTISVDTSKNQFSLKLSSVTAADTAVYYCARNPISIPAFDIWGQGTMVTVSS
VL: QPVLTQPPSVSVAPGKTARITCGGNNIGSKSVHWYQQKPGQAPVLVIYYDSDRPSGIPERFSGSNSGNTATLTISRVEAGDEADYYCQVWDTSSDHVLFGGGTKLTVL
In the case of B1, the Kd in the assay with EGFRvIII (CHO cells) amounted to 0.5 nM.

B2: scFv-IgAb_02 (full) (antibody)
chain 1: QVQLVQSGAEVKKPGESLKVSCKASGYTFTSYYMHWVRQAPGQGLEWMGIINPSGGSTSYAQKFQGRVTMTRDTSTSTVYMELSSLRSEDTAVYYCARGSAYYYDFADYWGQGTLVTVSSASTKGPSVFPLAPSSKSTSGGTAALGCLVKDYFPEPVTVSWNSGALTSGVHTFPAVLQSSGLYSLSSVVTVPSSSLGTQTYICNVNHKPSNTKVDKKVEPKSCDKTHTCPPCPAPEFEGGPSVFLFPPKPKDTLMISRTPEVTCVVVAVSHEDPEVKFNWYVDGVEVHNAKTKPREEQYNSTYRVVSVLTVLHQDWLNGKEYKCKVSNKALPAPIEKTISKAKGQPREPQVYTLPPSREEMTKNQVSLTCLVKGFYPSDIAVEWESNGQPENNYKTTPPVLDSDGSFFLYSKLTVDKSRWQQGNVFSCSVMHEALHNHYTQKSLSLSPGGGGGSGGGGSQVQLQESGPGLVKPSETLSLTCTVSGGSVSSGSYYWSWIRQPPGKGLEWIGYIYYSGSTNYNPSLKSRVTISVDTSKNQFSLKLSSVTAADTAVYYCARNPISIPAFDIWGQGTMVTVSSGGSGGSGGSGGSGGSGGSQPVLTQPPSVSVAPGKTARITCGGNNIGSKSVHWYQQKPGQAPVLVIYYDSDRPSGIPERFSGSNSGNTATLTISRVEAGDEADYYCQVWDTSSDHVLFGGGTKLTVL
chain 2: SYVLTQPSSVSVAPGQTATISCGGHNIGSKNVHWYQQRPGQSPVLVIYQDNKRPSGIPERFSGSNSGNTATLTISGTQAMDEADYYCQVWDNYSVLFGGGTKLTVLGQPKAAPSVTLFPPSSEELQANKATLVCLISDFYPGAVTVAWKADSSPVKAGVETTTPSKQSNNKYAASSYLSLTPEQWKSHRSYSCQVTHEGSTVEKTVAPTECS
Consider B2, for which the binding result (with human FcγRI (CD64); with murine FcγRI; in assay [1]; in the assay with murine FcγRIII; with human FcγRIIc (CD32C); with murine FcγRIIb) was “no binding” throughout. The binding result (with human FcγRIIb (CD32B); in the assay with murine FcγRIV (CD16-2); with human FcγRIIa (CD32A); in assay [2]) was “no binding” in each case. The equilibrium dissociation constant (Kd) in the assay with murine FcRn was 180 nM; in the assay with human FcRn, 430 nM; with cynomolgus FcRn it was 842 nM.
